Consider six molecules from US20260151496A1 (FUDAN UNIVERSITY, published 2026).

Assay [1] concerns the target T1, human HER2 His6 protein, extracellular domain (NCBI NP_004439.2, Met 1-Thr 652), C-terminal polyhistidine tag (human, UniProt P04626 23-652).
T1 construct: range 1-652; The stated range includes Met 1; also called HER2-ECD; human HER2-ECD
The assay is described as follows: ELISA, HER2 protein coated at 1 µg/mL, detection with HRP-labelled protein A, OD 450 nm. The protocol: (§1) HER2 protein was diluted to 1 μg/mL with coating solution, coated onto ELISA plate, 100 μL/well, 4° C., overnight. The excess antigens were washed off. The plate was blocked with 1% BSA at room temperature for 2 hours, then 5-fold gradient diluted monoclonal antibodies were added at 100 μL/well, and the plate was incubated at room temperature for 1 hour; the unbound antibodies were washed off, and suitable concentration of horseradish peroxidase labeled Staphylococcus protein A was added at 100 μL/well, and the plate was incubated at room temperature for 0.5 hours. The unbound secondary antibody was washed off. TMB colorimetric solution was added and reacted for about 15 minutes. 1M HCl at 50 μL/well was added to terminate the colorimetric reaction, then the absorbance was measured at 450 nm and the data was analyzed.

For assay [2], the target named is T1, human HER2 His6 protein, extracellular …. In words: ELISA, HER2 protein coated at 1 µg/mL, detection with HRP-labelled protein A. The protocol:
as §1

Assay [3] concerns the target T2, HER2 receptor on the surface of NCI-N87 cells (human, UniProt P04626 23-1255).
T2 construct: whole, on cells; also called HER2 on tumor cell surface
In words: flow cytometry on NCI-N87 cells, PE-labelled secondary antibody. How it is done: (§2) HER2 overexpressing gastric cancer cell line NCI-N87 was used as the target cell. 100 μL of the test antibody diluted in a 10 folds gradient was used as the primary antibody. It was mixed with 1×10⁵ tumor cells suspended in 100 μL RPMI-1640 serum-free medium at final concentrations of 10 μg/mL, 1 μg/mL, and 0.1 μg/mL. The cells were then incubated at 4° C. for 1 hour, washed twice with PBS to remove unbound primary antibodies, and incubated with 200 μL, 2 μg/mL, PE labeled secondary antibodies at 4° C. for 30 minutes. The cells were washed twice with PBS to remove unbound secondary antibodies. Finally, the cells were resuspended in 200 μL PBS and analyzed by flow cytometry to determine the binding affinity of the test antibody to HER2 on the corresponding cell surface.

The target in assay [4] is T1, human HER2 His6 protein, extracellular …. In words: ForteBio OCTET R2, antibody captured on Protein A sensor, HER2 protein in solution, 25 °C. How it is done: (§3) […] detection was performed and Protein A sensor was used to solidify the antibody at a curing height of approximately […]. […] Affinity detection: equilibrium for 60 seconds, binding for 180 seconds, dissociation for 180 seconds, detection at 25° C., and kinetic characterization analysis was performed using the ForteBio OCTET R2 system.

The target is the same in assay [5]. In words: called SPR, run on ForteBio OCTET R2; antibody captured on Protein A sensor, HER2 protein at 500-31.3 nM as analyte, 25 °C. How it is done:
as §3

Assay [6] addresses T2, HER2 receptor on the surface of NCI-N87 …. In words: flow cytometry on NCI-N87 cells, PE-labelled secondary antibody. How it is done: as §2
The source holds these as a separate data set.

Like-named read-outs stand apart in the source and are kept apart here.

B1: HER2 VHH-FC1 fusion protein 2-F03 (Fc fusion)
chain: EVQLVESGGGLVQPGGSLRLSCAASGLTFRRYHMSWYRQAPGKERELVAVISDTGTTNYAESVKGRFTISRDNSRSTVFLQLNSLKPDDTAVYYCNGRWPAVAADWWGQGTQVTVSSEPKSSDKTHTCPPCPAPEFEGGPSVFLFPPKPKDTLMISRTPEVTCVVVDVSHEDPEVKFNWYVDGVEVHNAKTKPREEQYNSTYRVVSVLTVLHQDWLNGKEYKCKVSNKALPASIEKTISKAKGQPREPQVYTLPPSRDELTKNQVSLTCLVKGFYPSDIAVEWESNGQPENNYKTTPPVLDSDGSFFLYSKLTVDKSRWQQGNVFSCSVMHEALHNHYTQKSLSLSPGK
notes: 25; also called 2-F03-FC1; chimeric nanobody 2-F03
Turning to B1, the EC50 worked out at 0.05 nM in assay [1], 0.004 µg/mL in assay [2], 1.67 nM in assay [3] and 0.13 µg/mL in assay [6]. Besides, in assay [3], the “Max MFI” value turned out to be 234000. Besides, in assay [4], the koff amounted to 0.0108 s⁻¹. The kon in assay [4] stood at 466000 M⁻¹ s⁻¹. Also, binding in assay [5] was put at a Kd of 23.2 nM.

B2: HER2 VHH-FC1 fusion protein 2-C07 (Fc fusion)
chain: AVQLVESGGGLVQPGGSLRLSCAASGLTFMRYDINWYRQAPGKERELVAALDSSSGRTNYADFTEGRFTISRNNAKNSAYLQMNNLKPEDTASYYCNAQWKRIGADYWGQGTQVTVFSEPKSSDKTHTCPPCPAPEFEGGPSVFLFPPKPKDTLMISRTPEVTCVVVDVSHEDPEVKFNWYVDGVEVHNAKTKPREEQYNSTYRVVSVLTVLHQDWLNGKEYKCKVSNKALPASIEKTISKAKGQPREPQVYTLPPSRDELTKNQVSLTCLVKGFYPSDIAVEWESNGQPENNYKTTPPVLDSDGSFFLYSKLTVDKSRWQQGNVFSCSVMHEALHNHYTQKSLSLSPGK
notes: 25; also called 2-C07-FC1; chimeric nanobody 2-C07
On to B2, for which the EC50 in assay [1] came to 0.07 nM; in assay [2] it was 0.005 µg/mL; in assay [3] it was 1.68 nM; in assay [6], 0.131 µg/mL. For the same molecule, the “Max MFI” value in assay [3] came out at 241000. Besides, in assay [4], the koff came out at 0.00251 s⁻¹. Further, the kon in assay [4] was found to be 338000 M⁻¹ s⁻¹. In assay [5], this molecule showed a Kd of 7.42 nM.

B3: HER2 VHH-FC1 fusion protein 1-C10 (Fc fusion)
chain: QVQLVESGGDLVQPGGSLRLSCATSGLTFRRYELKWYRQAPGKERELVAGITPASGSRNYADSVKGRFTISRDDAKMTVYLQMNSLEPEDTAVYYCNAYWMIPQHIENNYWGKGTLVTVSSEPKSSDKTHTCPPCPAPEFEGGPSVFLFPPKPKDTLMISRTPEVTCVVVDVSHEDPEVKFNWYVDGVEVHNAKTKPREEQYNSTYRVVSVLTVLHQDWLNGKEYKCKVSNKALPASIEKTISKAKGQPREPQVYTLPPSRDELTKNQVSLTCLVKGFYPSDIAVEWESNGQPENNYKTTPPVLDSDGSFFLYSKLTVDKSRWQQGNVFSCSVMHEALHNHYTQKSLSLSPGK
notes: 25; also called 1-C10-FC1; chimeric nanobody 1-C10
Consider B3, for which the EC50 in assay [1] stood at 0.22 nM; in assay [2], 0.017 µg/mL; in assay [3], 2.64 nM; in assay [6], 0.209 µg/mL. Further, the “Max MFI” value in assay [3] worked out at 240000. For the same molecule, the koff in assay [4] amounted to 0.001 s⁻¹. In addition, in assay [4], the kon is 217000 M⁻¹ s⁻¹. In assay [5], this molecule registered a Kd of 4.61 nM.

B4: HER2 VHH-FC1 fusion protein 1-C09 (Fc fusion)
chain: DVQLVESGGGLVQPGGSLRLSCEASGLTFRRYHFSWYRQPPGKERELVAVISDTGSTTNYTDSVKGRFTISRDLARNTVFLQLNSLKPDDTAVYYCNAKWPIIAADWWGQGTQVTVSSEPKSSDKTHTCPPCPAPEFEGGPSVFLFPPKPKDTLMISRTPEVTCVVVDVSHEDPEVKFNWYVDGVEVHNAKTKPREEQYNSTYRVVSVLTVLHQDWLNGKEYKCKVSNKALPASIEKTISKAKGQPREPQVYTLPPSRDELTKNQVSLTCLVKGFYPSDIAVEWESNGQPENNYKTTPPVLDSDGSFFLYSKLTVDKSRWQQGNVFSCSVMHEALHNHYTQKSLSLSPGK
notes: 25; also called 1-C09-FC1; 1-C9-FC1
On to B4, for which the EC50 in assay [1] was 0.125 nM; in assay [2], 0.01 µg/mL; in assay [3] it was 1.39 nM; in assay [6] it was 0.109 µg/mL. For the same molecule, in assay [3], the “Max MFI” value amounted to 269000. The molecule also displayed a koff in assay [4] of 0.0118 s⁻¹. In assay [4], this molecule had a kon of 974000 M⁻¹ s⁻¹. This molecule also had a Kd in assay [5] of 12.1 nM.

B5: HER2 VHH-FC1 fusion protein 1-G07 (Fc fusion)
chain: QVQLVESGGGKAQPGGSLRLSCVASRITFRHYDLSWYRQAPGQERELVATVTNGGVITYADSVKGRFTISRDNAKNTVQLQMNNLKPEDTAVYYCNAVWVYLQRLTQNKKENDYWGPGTQVTVSSEPKSSDKTHTCPPCPAPEFEGGPSVFLFPPKPKDTLMISRTPEVTCVVVDVSHEDPEVKFNWYVDGVEVHNAKTKPREEQYNSTYRVVSVLTVLHQDWLNGKEYKCKVSNKALPASIEKTISKAKGQPREPQVYTLPPSRDELTKNQVSLTCLVKGFYPSDIAVEWESNGQPENNYKTTPPVLDSDGSFFLYSKLTVDKSRWQQGNVFSCSVMHEALHNHYTQKSLSLSPGK
notes: 25; also called 1-G07-FC1; chimeric nanobody 1-G07
On to B5, for which the EC50 in assay [1] was found to be 0.128 nM; in assay [2], 0.01 µg/mL; in assay [3], 2.48 nM; in assay [6], 0.199 µg/mL. Also, the “Max MFI” value in assay [3] stood at 250000.

B6: HER2 VHH-FC1 fusion protein 1-B05 (Fc fusion)
chain: AVQLVESGGGPGGSLRLSCAASGITFFRHTLGWYRQAPGKQRELVASITGGESTNYADSVKSRFTISRDNAKNMVFLQMNSLKPEDTALYYCNSKWDAAGVEFWGKGTLVTVSSEPKSSDKTHTCPPCPAPEFEGGPSVFLFPPKPKDTLMISRTPEVTCVVVDVSHEDPEVKFNWYVDGVEVHNAKTKPREEQYNSTYRVVSVLTVLHQDWLNGKEYKCKVSNKALPASIEKTISKAKGQPREPQVYTLPPSRDELTKNQVSLTCLVKGFYPSDIAVEWESNGQPENNYKTTPPVLDSDGSFFLYSKLTVDKSRWQQGNVFSCSVMHEALHNHYTQKSLSLSPGK
notes: 25; also called 1-B05-FC1; chimeric nanobody 1-B05
Take B6: the EC50 in assay [1] came to 0.069 nM; in assay [2], 0.005 µg/mL; in assay [3] it was 1.86 nM; in assay [6] it was 0.144 µg/mL. Also, in assay [3], the “Max MFI” value turned out to be 245000. In addition, the koff in assay [4] turned out to be 0.0108 s⁻¹. Besides, the kon in assay [4] came out at 1.22e+06 M⁻¹ s⁻¹. In addition, the Kd in assay [5] was 8.9 nM.
